Laboratory results reported in publication PMC2793330 (Journal of structural biology, 2009).

B1: Spc97p with YFP on its N-terminus (of γ-TuSC:YFPSpc97p) (natural protein, S. cerevisiae, UniProt P38863 1-823, looked up)
chain: MEIKEVDDRAELLRYTNNIPLLGKLVNHQPLWSTNPKLKSFSLEKISAPDQRRVQEALVVKDLLNVLIGLEGTYIRYFNDYEPSDPETPIEFKIAKKMDPSFKTFSRRIVRYGKQYMILTRAYEKWSDTSFGMVLQRFAYEIRRFLEDVYLKTLVERLERDFNKVPNFSIRELEQIINETEVNKQMELLYNIYEEIFREIEERRTNQSSQEDFNNFMDSMKNESSLHLRLMVAFDTTVYPVPKGGAILKIFQQKILENLGDRSSVMFLKKLLNNISQDYCTMLYEWLTQGILNDPYQEFMTYDDLEGKTDNIFDTRDRAWDTQYFIRKDVLLRDCDSEEDKNLLFKMLRTGILLKVVRASLQIPTIPSNSSDITIQEINDFADLMEGSNLELYVDKCYSRANEIFLKLFFQGYDLINVLKHLQQIFLGYQSGHNVLKFLTKNMGELTKHYRNDNNANYDKLLQNFELERQSENPNNLMRQLLMIQFDTETLPQVLSHYLQIYPEVPENNSANDDSDPLMHANNFKNMNAILFDELSKERTGAYHGSNLELYTPKSAIYHLKFDINIPYPLNIIISRTCMIKYQIILRYQLVLQYHSRLLDETWMDLNKTPSWKYRGYSHTVKRRIVRATRVLHAKMNHFIKTIMEYFNQNVIDKEVYSLEKCYRNPTLAVAIQNELEGGLTNIMTNRCLSDLIPLQLQIFDIVYKFCKFIKSMRAKLCQLDPVLYEKHKSGMMKTLNEGYRTNNGGQEDVGYQEDAALELIQKLIEYISNASSIFRKCLINFTQELSTEKFDFYDSSSVDAAGIERVLYSIVPPRSASASSQR
B2: Spc97p with YFP on its C-terminus (of γ-TuSC:Spc97pYFP) (natural protein, S. cerevisiae, UniProt P38863 1-823, looked up)
chain: MEIKEVDDRAELLRYTNNIPLLGKLVNHQPLWSTNPKLKSFSLEKISAPDQRRVQEALVVKDLLNVLIGLEGTYIRYFNDYEPSDPETPIEFKIAKKMDPSFKTFSRRIVRYGKQYMILTRAYEKWSDTSFGMVLQRFAYEIRRFLEDVYLKTLVERLERDFNKVPNFSIRELEQIINETEVNKQMELLYNIYEEIFREIEERRTNQSSQEDFNNFMDSMKNESSLHLRLMVAFDTTVYPVPKGGAILKIFQQKILENLGDRSSVMFLKKLLNNISQDYCTMLYEWLTQGILNDPYQEFMTYDDLEGKTDNIFDTRDRAWDTQYFIRKDVLLRDCDSEEDKNLLFKMLRTGILLKVVRASLQIPTIPSNSSDITIQEINDFADLMEGSNLELYVDKCYSRANEIFLKLFFQGYDLINVLKHLQQIFLGYQSGHNVLKFLTKNMGELTKHYRNDNNANYDKLLQNFELERQSENPNNLMRQLLMIQFDTETLPQVLSHYLQIYPEVPENNSANDDSDPLMHANNFKNMNAILFDELSKERTGAYHGSNLELYTPKSAIYHLKFDINIPYPLNIIISRTCMIKYQIILRYQLVLQYHSRLLDETWMDLNKTPSWKYRGYSHTVKRRIVRATRVLHAKMNHFIKTIMEYFNQNVIDKEVYSLEKCYRNPTLAVAIQNELEGGLTNIMTNRCLSDLIPLQLQIFDIVYKFCKFIKSMRAKLCQLDPVLYEKHKSGMMKTLNEGYRTNNGGQEDVGYQEDAALELIQKLIEYISNASSIFRKCLINFTQELSTEKFDFYDSSSVDAAGIERVLYSIVPPRSASASSQR
B3: Spc97p, without fluorescent protein tag (natural protein, S. cerevisiae, UniProt P38863 1-823, looked up)
chain: MEIKEVDDRAELLRYTNNIPLLGKLVNHQPLWSTNPKLKSFSLEKISAPDQRRVQEALVVKDLLNVLIGLEGTYIRYFNDYEPSDPETPIEFKIAKKMDPSFKTFSRRIVRYGKQYMILTRAYEKWSDTSFGMVLQRFAYEIRRFLEDVYLKTLVERLERDFNKVPNFSIRELEQIINETEVNKQMELLYNIYEEIFREIEERRTNQSSQEDFNNFMDSMKNESSLHLRLMVAFDTTVYPVPKGGAILKIFQQKILENLGDRSSVMFLKKLLNNISQDYCTMLYEWLTQGILNDPYQEFMTYDDLEGKTDNIFDTRDRAWDTQYFIRKDVLLRDCDSEEDKNLLFKMLRTGILLKVVRASLQIPTIPSNSSDITIQEINDFADLMEGSNLELYVDKCYSRANEIFLKLFFQGYDLINVLKHLQQIFLGYQSGHNVLKFLTKNMGELTKHYRNDNNANYDKLLQNFELERQSENPNNLMRQLLMIQFDTETLPQVLSHYLQIYPEVPENNSANDDSDPLMHANNFKNMNAILFDELSKERTGAYHGSNLELYTPKSAIYHLKFDINIPYPLNIIISRTCMIKYQIILRYQLVLQYHSRLLDETWMDLNKTPSWKYRGYSHTVKRRIVRATRVLHAKMNHFIKTIMEYFNQNVIDKEVYSLEKCYRNPTLAVAIQNELEGGLTNIMTNRCLSDLIPLQLQIFDIVYKFCKFIKSMRAKLCQLDPVLYEKHKSGMMKTLNEGYRTNNGGQEDVGYQEDAALELIQKLIEYISNASSIFRKCLINFTQELSTEKFDFYDSSSVDAAGIERVLYSIVPPRSASASSQR

Columns and labels:
Test in all cases: co-purification, SDS-PAGE with band densitometry
[1] = molecular target: T1, Spc98p with CFP on its N-terminus (of γ-TuSC:CFPSpc98p) (S. cerevisiae, UniProt P53540 1-846)
T1 sequence (looked up): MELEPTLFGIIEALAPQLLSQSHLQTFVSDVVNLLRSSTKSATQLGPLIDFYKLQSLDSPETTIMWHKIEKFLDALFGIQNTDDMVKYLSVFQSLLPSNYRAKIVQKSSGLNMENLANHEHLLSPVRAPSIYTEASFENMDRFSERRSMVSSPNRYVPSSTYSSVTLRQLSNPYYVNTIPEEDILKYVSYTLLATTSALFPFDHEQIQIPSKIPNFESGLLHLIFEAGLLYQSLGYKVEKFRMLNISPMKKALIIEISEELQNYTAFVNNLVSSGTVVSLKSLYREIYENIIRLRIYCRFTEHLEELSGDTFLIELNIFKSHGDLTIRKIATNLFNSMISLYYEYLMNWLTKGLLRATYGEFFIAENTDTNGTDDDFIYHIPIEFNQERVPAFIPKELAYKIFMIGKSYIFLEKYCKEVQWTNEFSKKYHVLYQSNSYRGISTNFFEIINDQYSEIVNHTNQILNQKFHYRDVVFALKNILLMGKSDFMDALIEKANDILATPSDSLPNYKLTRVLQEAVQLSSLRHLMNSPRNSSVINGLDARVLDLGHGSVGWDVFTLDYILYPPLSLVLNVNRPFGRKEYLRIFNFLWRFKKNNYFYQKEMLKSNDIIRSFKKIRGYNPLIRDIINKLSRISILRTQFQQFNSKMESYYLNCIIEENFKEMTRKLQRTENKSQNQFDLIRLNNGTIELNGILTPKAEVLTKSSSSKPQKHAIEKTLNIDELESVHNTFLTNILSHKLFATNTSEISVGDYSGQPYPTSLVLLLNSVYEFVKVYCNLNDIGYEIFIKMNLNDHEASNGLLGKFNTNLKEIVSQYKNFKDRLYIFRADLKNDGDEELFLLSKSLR

[2] = molecular target: T2, Spc98p, without fluorescent protein tag (S. cerevisiae, UniProt P53540 1-846)
T2 sequence (looked up): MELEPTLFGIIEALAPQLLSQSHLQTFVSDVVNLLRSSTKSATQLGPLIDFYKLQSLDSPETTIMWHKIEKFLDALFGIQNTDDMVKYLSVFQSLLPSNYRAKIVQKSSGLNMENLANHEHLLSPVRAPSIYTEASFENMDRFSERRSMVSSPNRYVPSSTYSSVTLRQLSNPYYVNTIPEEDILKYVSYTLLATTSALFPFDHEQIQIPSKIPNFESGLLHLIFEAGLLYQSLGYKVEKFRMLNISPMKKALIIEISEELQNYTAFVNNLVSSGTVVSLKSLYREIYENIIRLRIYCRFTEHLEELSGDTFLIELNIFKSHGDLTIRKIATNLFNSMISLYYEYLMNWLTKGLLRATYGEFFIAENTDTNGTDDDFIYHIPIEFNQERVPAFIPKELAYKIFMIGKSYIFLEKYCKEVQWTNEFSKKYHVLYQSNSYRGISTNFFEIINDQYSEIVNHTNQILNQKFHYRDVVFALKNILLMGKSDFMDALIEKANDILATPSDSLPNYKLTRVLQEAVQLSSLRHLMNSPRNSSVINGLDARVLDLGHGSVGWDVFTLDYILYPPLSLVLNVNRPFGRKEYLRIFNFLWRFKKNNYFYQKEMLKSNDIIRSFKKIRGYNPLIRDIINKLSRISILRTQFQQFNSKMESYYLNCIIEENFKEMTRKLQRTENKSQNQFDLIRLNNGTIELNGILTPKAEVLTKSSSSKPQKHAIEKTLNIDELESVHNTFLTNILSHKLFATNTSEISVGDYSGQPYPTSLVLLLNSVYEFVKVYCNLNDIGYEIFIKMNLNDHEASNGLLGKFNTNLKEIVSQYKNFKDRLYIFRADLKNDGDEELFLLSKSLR

[3] = molecular target: B1
[4] = molecular target: B3
[5] = molecular target: B2
[6] = molecular target: T3, Spc98p with CFP on its C-terminus (of γ-TuSC:Spc98pCFP) (S. cerevisiae, UniProt P53540 1-846)
T3 sequence (looked up): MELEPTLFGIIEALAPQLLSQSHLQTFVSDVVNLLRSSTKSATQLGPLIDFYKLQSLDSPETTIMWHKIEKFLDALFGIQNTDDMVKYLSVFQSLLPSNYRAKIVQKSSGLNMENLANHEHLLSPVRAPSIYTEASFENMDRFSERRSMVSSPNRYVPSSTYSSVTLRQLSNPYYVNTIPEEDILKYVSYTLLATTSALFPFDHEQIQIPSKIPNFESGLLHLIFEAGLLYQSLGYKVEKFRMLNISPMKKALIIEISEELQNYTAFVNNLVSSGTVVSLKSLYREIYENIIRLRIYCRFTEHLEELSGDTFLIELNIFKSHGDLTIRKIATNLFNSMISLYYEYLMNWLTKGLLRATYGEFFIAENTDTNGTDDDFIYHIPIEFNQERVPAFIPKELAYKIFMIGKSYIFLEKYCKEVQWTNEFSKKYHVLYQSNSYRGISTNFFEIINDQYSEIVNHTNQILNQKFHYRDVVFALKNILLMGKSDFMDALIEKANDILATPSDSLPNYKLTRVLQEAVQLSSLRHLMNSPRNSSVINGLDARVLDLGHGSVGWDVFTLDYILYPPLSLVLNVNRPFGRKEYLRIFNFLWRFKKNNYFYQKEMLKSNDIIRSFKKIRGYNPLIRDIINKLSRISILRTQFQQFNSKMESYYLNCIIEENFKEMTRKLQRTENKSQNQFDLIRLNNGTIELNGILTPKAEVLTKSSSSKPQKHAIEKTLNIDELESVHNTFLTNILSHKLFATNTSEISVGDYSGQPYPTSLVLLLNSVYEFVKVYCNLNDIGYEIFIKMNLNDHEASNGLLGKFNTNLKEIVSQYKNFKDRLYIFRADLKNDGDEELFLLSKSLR

| Binder | stoichiometry N [1] | stoichiometry N [2] | stoichiometry N [3] | stoichiometry N [4] | stoichiometry N [5] | stoichiometry N [6] |
| --- | --- | --- | --- | --- | --- | --- |
| γ-tubulin (Tub4p), His-tagged, as in the fluorescent-protein-tagged γ-TuSC constructs (natural protein, S. cerevisiae, UniProt P53378 1-473, looked up) MGGEIITLQAGQCGNHVGKFLWSQLAKEHAIGTDGLSQLPDSSTERDDDTKPFFRENSRNKFTPRAIMMDSEPSVIADVENTFRGFFDPRNTWVASDGASAGNSWANGYDIGTRNQDDILNKIDKEIDSTDNFEGFQLLHSVAGGTGSGLGSNLLEALCDRYPKKILTTYSVFPARSSEVVVQSYNTILALRRLIEDSDATVVFDNASLLNISGKVFRNPNIDLQHTNQLISTIISSVTNSIRFPSYMYSSMSSIYSTLIPSPELHFLSPSFTPFTSDYIHDDIAHKGHSSYDVMLDLLDPSNSLVSTAMNNPTYFNVYNTIIGNVEPRQISRAMTKLQQRIKFPSWSSSAMHVNIGRRSPYLPLQPNENEVSGMMLSNMSTVVNVFENACNTFDKVFAKGAFLNNYNVGDLFQSMQNVQDEFAESREVVQSLMEDYVAAEQDSYLDDVLVDDENMVGELEEDLDADGDHKLV | 2 | 2 | 2 | 2 | 2 | 2 |
| γ-tubulin (Tub4p), His-tagged with the longer tag linker, as in the γ-TuSC without fluorescent protein tag (natural protein, S. cerevisiae, UniProt P53378 1-473, looked up) MGGEIITLQAGQCGNHVGKFLWSQLAKEHAIGTDGLSQLPDSSTERDDDTKPFFRENSRNKFTPRAIMMDSEPSVIADVENTFRGFFDPRNTWVASDGASAGNSWANGYDIGTRNQDDILNKIDKEIDSTDNFEGFQLLHSVAGGTGSGLGSNLLEALCDRYPKKILTTYSVFPARSSEVVVQSYNTILALRRLIEDSDATVVFDNASLLNISGKVFRNPNIDLQHTNQLISTIISSVTNSIRFPSYMYSSMSSIYSTLIPSPELHFLSPSFTPFTSDYIHDDIAHKGHSSYDVMLDLLDPSNSLVSTAMNNPTYFNVYNTIIGNVEPRQISRAMTKLQQRIKFPSWSSSAMHVNIGRRSPYLPLQPNENEVSGMMLSNMSTVVNVFENACNTFDKVFAKGAFLNNYNVGDLFQSMQNVQDEFAESREVVQSLMEDYVAAEQDSYLDDVLVDDENMVGELEEDLDADGDHKLV |  | 2 |  | 2 |  |  |
| B1 |  | 1 |  |  |  |  |
| B2 |  | 1 |  |  |  |  |
| B3 | 1 | 1 |  |  |  | 1 |
